Results reported in IntAct's records for PubMed 31515488.

B1: Keratin-associated protein 5-9 (Homo sapiens), P26371 (parent)
chain: MGCCGCSGGCGSSCGGCDSSCGSCGSGCRGCGPSCCAPVYCCKPVCCCVPACSCSSCGKRGCGSCGGSKGGCGSCGCSQCSCCKPCCCSSGCGSSCCQCSCCKPYCSQCSCCKPCCSSSGRGSSCCQSSCCKPCCSSSGCGSSCCQSSCCKPCCSQSRCCVPVCYQCKI
B2: Zinc finger and BTB domain-containing protein 43 (Homo sapiens), O43298 (parent)
chain: MEPGTNSFRVEFPDFSSTILQKLNQQRQQGQLCDVSIVVQGHIFRAHKAVLAASSPYFCDQVLLKNSRRIVLPDVMNPRVFENILLSSYTGRLVMPAPEIVSYLTAASFLQMWHVVDKCTEVLEGNPTVLCQKLNHGSDHQSPSSSSYNGLVESFELGSGGHTDFPKAQELRDGENEEESTKDELSSQLTEHEYLPSNSSTEHDRLSTEMASQDGEEGASDSAEFHYTRPMYSKPSIMAHKRWIHVKPERLEQACEGMDVHATYDEHQVTESINTVQTEHTVQPSGVEEDFHIGEKKVEAEFDEQADESNYDEQVDFYGSSMEEFSGERSDGNLIGHRQEAALAAGYSENIEMVTGIKEEASHLGFSATDKLYPCQCGKSFTHKSQRDRHMSMHLGLRPYGCGVCGKKFKMKHHLVGHMKIHTGIKPYECNICAKRFMWRDSFHRHVTSCTKSYEAAKAEQNTTEAN
B3: RUN and FYVE domain-containing protein 1 (Homo sapiens), Q96T51-2 (parent)
chain: MMEERANLMHMMKLSIKVLLQSALSLGRSLDADHAPLQQFFVVMEHCLKHGLKVKKSFIGQNKSFFGPLELVEKLCPEASDIATSVRNLPELKTAVGRGRAWLYLALMQKKLADYLKVLIDNKHLLSEFYEPEALMMEEEGMVIVGLLVGLNVLDANLCLKGEDLDSQVGVIDFSLYLKDVQDLDGGKEHERITDVLDQKNYVEELNRHLSCTVGDLQTKIDGLEKTNSKLQEELSAATDRICSLQEEQQQLREQNELIRERSEKSVEITKQDTKVELETYKQTRQGLDEMYSDVWKQLKEEKKVRLELEKELELQIGMKTEMEIAMKLLEKDTHEKQDTLVALRQQLEEVKAINLQMFHKAQNAESSLQQKNEAITSFEGKTNQVMSSMKQMEERLQHSERARQGAEERSHKLQQELGGRIGALQLQLSQLHEQCSSLEKELKSEKEQRQALQRELQHEKDTSSLLRMELQQVEGLKKELRELQDEKAELQKICEEQEQALQEMGLHLSQSKLKMEDIKEVNQALKGHAWLKDDEATHCRQCEKEFSISRRKHHCRNCGHIFCNTCSSNELALPSYPKPVRVCDSCHTLLLQRCSSTAS
partner: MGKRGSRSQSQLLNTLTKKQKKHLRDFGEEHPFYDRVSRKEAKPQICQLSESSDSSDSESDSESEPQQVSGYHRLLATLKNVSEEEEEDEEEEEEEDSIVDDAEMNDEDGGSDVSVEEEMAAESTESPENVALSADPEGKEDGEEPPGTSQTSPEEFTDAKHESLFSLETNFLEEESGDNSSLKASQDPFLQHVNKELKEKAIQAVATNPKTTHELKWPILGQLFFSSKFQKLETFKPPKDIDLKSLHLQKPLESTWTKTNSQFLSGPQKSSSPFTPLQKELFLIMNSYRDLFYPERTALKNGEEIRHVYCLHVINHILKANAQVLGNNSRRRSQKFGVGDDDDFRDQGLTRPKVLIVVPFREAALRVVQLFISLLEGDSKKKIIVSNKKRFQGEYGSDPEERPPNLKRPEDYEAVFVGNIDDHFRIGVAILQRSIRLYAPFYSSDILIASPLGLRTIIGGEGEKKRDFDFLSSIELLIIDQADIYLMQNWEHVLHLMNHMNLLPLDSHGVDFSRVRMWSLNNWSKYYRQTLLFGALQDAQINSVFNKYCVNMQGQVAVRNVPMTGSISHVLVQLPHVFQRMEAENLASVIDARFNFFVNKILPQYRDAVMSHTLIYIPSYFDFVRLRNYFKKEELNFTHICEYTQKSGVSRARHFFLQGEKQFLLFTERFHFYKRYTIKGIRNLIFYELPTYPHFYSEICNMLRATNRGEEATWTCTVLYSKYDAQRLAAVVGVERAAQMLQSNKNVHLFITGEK
B4: Notch homolog 2 N-terminal-like protein A (Homo sapiens), Q7Z3S9 (parent)
chain: MCVTYHNGTGYCKCPEGFLGEYCQHRDPCEKNRCQNGGTCVAQAMLGKATCRCASGFTGEDCQYSTSHPCFVSRPCLNGGTCHMLSRDTYECTCQVGFTGKECQWTDACLSHPCANGSTCTTVANQFSCKCLTGFTGQKCETDVNECDIPGHCQHGGTCLNLPGSYQCQCLQGFTGQYCDSLYVPCAPSPCVNGGTCRQTGDFTFECNCLPETVRRGTELWERDREVWNGKEHDEN
partner: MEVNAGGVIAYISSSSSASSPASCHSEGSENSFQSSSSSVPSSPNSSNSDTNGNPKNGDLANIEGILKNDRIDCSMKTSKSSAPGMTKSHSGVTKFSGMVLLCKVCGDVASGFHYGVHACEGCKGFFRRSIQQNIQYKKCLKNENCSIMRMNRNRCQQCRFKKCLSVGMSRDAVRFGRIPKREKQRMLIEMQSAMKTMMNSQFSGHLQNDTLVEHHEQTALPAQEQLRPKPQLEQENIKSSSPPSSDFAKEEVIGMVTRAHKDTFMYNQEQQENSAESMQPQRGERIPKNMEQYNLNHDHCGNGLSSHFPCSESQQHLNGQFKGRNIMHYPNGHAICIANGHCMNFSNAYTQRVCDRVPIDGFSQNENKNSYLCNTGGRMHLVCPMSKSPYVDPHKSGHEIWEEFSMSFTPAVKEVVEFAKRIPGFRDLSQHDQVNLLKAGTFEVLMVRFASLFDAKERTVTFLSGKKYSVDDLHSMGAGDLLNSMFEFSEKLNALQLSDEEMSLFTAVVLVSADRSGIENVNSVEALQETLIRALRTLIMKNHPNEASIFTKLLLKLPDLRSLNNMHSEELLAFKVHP
B5: Homeobox protein PKNOX1 (Homo sapiens), P55347 (parent)
chain: MMATQTLSIDSYQDGQQMQVVTELKTEQDPNCSEPDAEGVSPPPVESQTPMDVDKQAIYRHPLFPLLALLFEKCEQSTQGSEGTTSASFDVDIENFVRKQEKEGKPFFCEDPETDNLMVKAIQVLRIHLLELEKVNELCKDFCSRYIACLKTKMNSETLLSGEPGSPYSPVQSQQIQSAITGTISPQGIVVPASALQQGNVAMATVAGGTVYQPVTVVTPQGQVVTQTLSPGTIRIQNSQLQLQLNQDLSILHQDDGSSKNKRGVLPKHATNVMRSWLFQHIGHPYPTEDEKKQIAAQTNLTLLQVNNWFINARRRILQPMLDSSCSETPKTKKKTAQNRPVQRFWPDSIASGVAQPPPSELTMSEGAVVTITTPVNMNVDSLQSLSSDGATLAVQQVMMAGQSEDESVDSTEEDAGALAPAHISGLVLENSDSLQ
partner: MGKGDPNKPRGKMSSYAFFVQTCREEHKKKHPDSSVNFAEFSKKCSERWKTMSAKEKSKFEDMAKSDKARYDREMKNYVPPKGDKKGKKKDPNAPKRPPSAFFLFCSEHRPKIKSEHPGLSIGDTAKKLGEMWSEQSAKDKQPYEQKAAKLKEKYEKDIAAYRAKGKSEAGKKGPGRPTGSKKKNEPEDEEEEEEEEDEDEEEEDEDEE

Variants of: B1
Conditions: with catz_human CTSZ
For Y40C, the “effect of a mutation on the interaction” value was “disrupting interaction strength”.

Variants of: B1
Conditions: with sdc3_human SDC3, O75056
Chain of sdc3_human SDC3, O75056 (O75056 whole entry): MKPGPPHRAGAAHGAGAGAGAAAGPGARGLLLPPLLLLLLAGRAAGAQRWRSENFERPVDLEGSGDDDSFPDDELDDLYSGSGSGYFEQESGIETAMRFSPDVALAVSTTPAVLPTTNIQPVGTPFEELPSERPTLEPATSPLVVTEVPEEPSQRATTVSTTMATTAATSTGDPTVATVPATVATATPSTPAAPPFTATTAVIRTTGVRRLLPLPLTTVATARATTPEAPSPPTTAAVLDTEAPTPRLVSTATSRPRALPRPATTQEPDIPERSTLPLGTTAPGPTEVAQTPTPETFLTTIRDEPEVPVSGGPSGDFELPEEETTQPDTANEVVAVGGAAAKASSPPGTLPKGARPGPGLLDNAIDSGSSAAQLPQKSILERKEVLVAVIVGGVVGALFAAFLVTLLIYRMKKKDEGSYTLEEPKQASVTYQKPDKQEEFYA
For Y40C, the “effect of a mutation on the interaction” value was “with no effect”.

Variants of: B2
Conditions: with psmd3_human PSMD3, O43242
Chain of psmd3_human PSMD3, O43242 (O43242 whole entry): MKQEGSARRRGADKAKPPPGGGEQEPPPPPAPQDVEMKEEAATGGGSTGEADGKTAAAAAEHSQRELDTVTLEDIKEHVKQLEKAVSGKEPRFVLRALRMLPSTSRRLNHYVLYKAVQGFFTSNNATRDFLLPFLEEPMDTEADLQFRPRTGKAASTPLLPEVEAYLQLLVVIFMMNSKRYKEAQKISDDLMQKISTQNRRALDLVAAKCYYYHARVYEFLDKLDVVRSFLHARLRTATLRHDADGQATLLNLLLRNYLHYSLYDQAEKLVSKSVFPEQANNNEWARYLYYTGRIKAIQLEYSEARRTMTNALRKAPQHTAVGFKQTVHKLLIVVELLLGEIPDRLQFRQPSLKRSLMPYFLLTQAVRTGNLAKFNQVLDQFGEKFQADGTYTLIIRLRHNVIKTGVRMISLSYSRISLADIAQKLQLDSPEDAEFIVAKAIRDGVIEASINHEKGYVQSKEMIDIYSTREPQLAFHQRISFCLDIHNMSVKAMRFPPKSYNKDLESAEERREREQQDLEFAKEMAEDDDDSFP
For L151V, the “effect of a mutation on the interaction” value was “disrupting interaction strength”.

Variants of: B2
Conditions: with traf2_human TRAF2, Q12933
Chain of traf2_human TRAF2, Q12933 (Q12933 whole entry): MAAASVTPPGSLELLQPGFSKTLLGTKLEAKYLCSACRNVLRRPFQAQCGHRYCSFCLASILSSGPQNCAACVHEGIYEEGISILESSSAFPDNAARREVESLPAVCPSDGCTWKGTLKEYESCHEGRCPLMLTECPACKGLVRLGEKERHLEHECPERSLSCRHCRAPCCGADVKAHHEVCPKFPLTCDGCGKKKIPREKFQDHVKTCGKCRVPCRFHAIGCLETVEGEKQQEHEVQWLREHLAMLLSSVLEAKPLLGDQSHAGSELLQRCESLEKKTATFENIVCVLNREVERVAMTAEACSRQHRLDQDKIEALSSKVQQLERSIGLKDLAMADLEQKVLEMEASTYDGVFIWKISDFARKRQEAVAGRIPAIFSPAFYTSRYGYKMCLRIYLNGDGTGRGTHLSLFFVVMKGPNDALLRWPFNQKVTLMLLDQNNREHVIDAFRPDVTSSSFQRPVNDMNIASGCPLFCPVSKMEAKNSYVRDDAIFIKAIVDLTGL
In the case of L151V, the “effect of a mutation on the interaction” value is reported as “disrupting interaction strength”.

Variants of: B2
Conditions: with mo4l2_human MORF4L2, Q15014
Chain of mo4l2_human MORF4L2, Q15014 (Q15014 whole entry): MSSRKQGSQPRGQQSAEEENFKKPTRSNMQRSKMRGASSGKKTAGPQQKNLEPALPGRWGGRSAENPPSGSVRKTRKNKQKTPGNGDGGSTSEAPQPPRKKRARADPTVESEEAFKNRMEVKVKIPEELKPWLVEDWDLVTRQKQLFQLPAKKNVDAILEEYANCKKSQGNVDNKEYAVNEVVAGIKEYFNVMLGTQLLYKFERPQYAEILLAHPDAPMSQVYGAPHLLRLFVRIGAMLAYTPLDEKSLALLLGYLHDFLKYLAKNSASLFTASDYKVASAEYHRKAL
L151V was tested, and the “effect of a mutation on the interaction” value was “disrupting interaction strength”.

Variants of: B2
Conditions: with arrb1_human ARRB1, P49407
Chain of arrb1_human ARRB1, P49407 (P49407 whole entry): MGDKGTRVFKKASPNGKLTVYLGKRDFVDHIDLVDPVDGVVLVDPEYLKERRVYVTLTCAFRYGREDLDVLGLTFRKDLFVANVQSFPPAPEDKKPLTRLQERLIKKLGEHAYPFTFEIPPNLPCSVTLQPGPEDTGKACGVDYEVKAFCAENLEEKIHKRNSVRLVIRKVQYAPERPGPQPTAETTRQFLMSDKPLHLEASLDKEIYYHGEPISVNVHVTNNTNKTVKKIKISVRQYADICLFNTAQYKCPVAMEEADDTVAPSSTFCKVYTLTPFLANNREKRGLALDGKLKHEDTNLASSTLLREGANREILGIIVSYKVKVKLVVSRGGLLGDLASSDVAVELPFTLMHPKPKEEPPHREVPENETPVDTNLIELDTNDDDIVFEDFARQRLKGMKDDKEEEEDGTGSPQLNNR
For L151V, the “effect of a mutation on the interaction” value was “disrupting interaction strength”.

Variants of: B3
Conditions: with utp25_human UTP25, Q68CQ4
With C159F the “effect of a mutation on the interaction” value was “with no effect”.

Variants of: B4
Conditions: with nr1d2_human NR1D2, Q14995
For R74Q, the “effect of a mutation on the interaction” value was “with no effect”. In the case of A115T, the “effect of a mutation on the interaction” value is reported as “with no effect”.

Variants of: B5
Conditions: with hmgb2_human HMGB2, P26583
With E103D the “effect of a mutation on the interaction” value was “with no effect”. In the case of V265I, the “effect of a mutation on the interaction” value is reported as “with no effect”.

Variants of: B5
Conditions: with hmgb2_human HMGB2, P26583
Remark: another data set of the same source
For V265I, the “effect of a mutation on the interaction” value was “with no effect”.
